In patent publication US20110070615A1 (published 2011):

The binders below were run against T1, hu IGF-1R(ECD)-C3-muIgG1Fc (human; mouse, Glycosylated. About 60% of the preparation is cleaved at RKRR (chain pos 708-711) into disulfide-linked alpha and beta chains, 40% is uncleaved. Dimer through receptor and Fc disulfides.) (assay: phage Fab ELISA, IGF-1R-C3-mFc coated at 5 µg/ml, anti-M13-HRP).
T1 construct: 60% of the purified protein was processed into α and β chains, 40% unprocessed; also called IGF-1R(ECD)-C3-muFc; IGF-1R-C3-muFc
Procedure: In 96-well 2-ml deep-well blocks, 480 μl/well 2×YT-CG broth was inoculated with 20 μl of overnight cultures of the individual clones, then incubated at 37° C., 300 rpm for 3 hours. To each well, 50 μl of 1:3 diluted M13KO7 helper phage were added to infect the cells. The block was incubated at 37° C. without shaking for 30 minutes, and then shaken gently for another 30 minutes at 150 rpm. The block was centrifuged at 3600 rpm for 20 minutes to pellet the infected cells. The cell pellet in each well was suspended into 480 μl of 2×YT-CK (2×YT broth containing 100 μg/ml carbenicillin and 40 μg/ml kanamycin), and incubated at 30° C. overnight for about 20 hours. The cell debris was separated by centrifugation at 3600 rpm for 20 minutes. The rescued phage supernatant was used in the phage ELISA to check for IGF-1R-specific, INSR-cross reactive, or mouse Fc binding of individual clones.
Three sets of Nunc MaxiSorb Immunoplates were coated with 100 μ/well of IGF-1R-C3-mFc at 5 μg/ml, INSR-mFc at 5 μg/ml, or mouse IgG1 (catalog #010-0103, Rockland, Gilbertsville, Pa.) at 2 μg/ml in PBS, respectively, at 4° C. overnight. The coated plates were washed 3× with […] of PBS. The washed plates were blocked with 300 μl/well 2% MPBS at room temperature for one hour. Meanwhile, rescued phages of individual clones were pre-blocked by mixing 170 μof rescued phage with 170 μl of 4% MPBS. The blocked plates were washed 5× with 300 μl/well TBST (TBS: 10 mM Tris-HCl, pH 7.5, 1 mM EDTA, 150 mM NaCl; Tween-20. 0.1%). 100 μl/well of pre-blocked phage dilutions were distributed to each set of coated plate, which were incubated at room temperature on a rocker for 90 minutes. The plates were washed 5× with 300 μl/well TBST. 100 μl/well of anti-M13-HRP in 2% MPBS (1:3000 dilution, catalog number 27-9421-01, Amersham Pharmacia Biotech) were distributed, and plates were incubated at room temperature on rocker for one hour. The plates were washed 5× with 300 μl/well TBST. 100 μl/well of the substrate 1-Step™ ABTS (Pierce Biotechnology, Rockford, Ill., catalog number 37615) were added. Plates were incubated for one hour. OD₄₀₅ was measured for signal detection.

binding result	Binder
binds	L20H20 (Fab, V domains shown) VH: QVQLQESGPGLVKPSGTLSLTCAVSGGSISSSNWWSWVRQPPGKGLEWIGEIYHSGSTNYNPSLKSRVTISVDKSKNQFSLKLSSVTAADTAVYYCARSSSWYWNAFDIWGQGTMVTVSS VL: not shown
binds	L18H18 (Fab, V domains shown) VH: QVQLVESGGGVVRPGGSLRLSCAASGFTFSSYAMSWVRQAPGKGLEWVSTISGSGGSTYYADSVKGRFTISRDNSKNTLYLQMNSLRAEDTAVYYCAKERGSGWSLDNMDVWGQGTTVTVSS VL: DIQLTQSPSSVSASVGDRVTITCRASQGISRWLAWYQQKPGKAPRLLIYAASGLQSGVPSRFSGSGSGTDFTLTISNLQPEDFATYYCQQASSFPITFGQGTRLETK
binds	L16H16 (Fab, V domains shown) VH: QVQLQESGPGLVKPSGTLSLTCAVSGGSISSSNWWSWVRQPPGKGLEWIGEIYHSGSTNYNPSLKSRVTISVDKSKNQFSLKLSSVTAADTAVYYCARWTGRTDAFDIWGQGTMVTVSS VL: not shown
binds	L19H19 (Fab, V domains shown) VH: QVQLVESGPGLVKPSGTLSLTCAVSGGSISSSNWWSWVRQPPGKGLEWIGEIYHSGSTNYNPSLKSRVTISVDKSKNQFSLKLSSVTAADTAVYYCARDSSGFYGMDVWGQGTTVTVSS VL: not shown
